Positions count from the first letter of the chain named. Names may count otherwise. Blank lines part the entries; values can stand above or below the molecule they belong to.
Legend:
[1] = tested on: T1, Var97, a variant of D519VE665V-FVIII with the additional amino acid substitutions I371P, V374F, V559L, R562W and Q565E
T1 sequence: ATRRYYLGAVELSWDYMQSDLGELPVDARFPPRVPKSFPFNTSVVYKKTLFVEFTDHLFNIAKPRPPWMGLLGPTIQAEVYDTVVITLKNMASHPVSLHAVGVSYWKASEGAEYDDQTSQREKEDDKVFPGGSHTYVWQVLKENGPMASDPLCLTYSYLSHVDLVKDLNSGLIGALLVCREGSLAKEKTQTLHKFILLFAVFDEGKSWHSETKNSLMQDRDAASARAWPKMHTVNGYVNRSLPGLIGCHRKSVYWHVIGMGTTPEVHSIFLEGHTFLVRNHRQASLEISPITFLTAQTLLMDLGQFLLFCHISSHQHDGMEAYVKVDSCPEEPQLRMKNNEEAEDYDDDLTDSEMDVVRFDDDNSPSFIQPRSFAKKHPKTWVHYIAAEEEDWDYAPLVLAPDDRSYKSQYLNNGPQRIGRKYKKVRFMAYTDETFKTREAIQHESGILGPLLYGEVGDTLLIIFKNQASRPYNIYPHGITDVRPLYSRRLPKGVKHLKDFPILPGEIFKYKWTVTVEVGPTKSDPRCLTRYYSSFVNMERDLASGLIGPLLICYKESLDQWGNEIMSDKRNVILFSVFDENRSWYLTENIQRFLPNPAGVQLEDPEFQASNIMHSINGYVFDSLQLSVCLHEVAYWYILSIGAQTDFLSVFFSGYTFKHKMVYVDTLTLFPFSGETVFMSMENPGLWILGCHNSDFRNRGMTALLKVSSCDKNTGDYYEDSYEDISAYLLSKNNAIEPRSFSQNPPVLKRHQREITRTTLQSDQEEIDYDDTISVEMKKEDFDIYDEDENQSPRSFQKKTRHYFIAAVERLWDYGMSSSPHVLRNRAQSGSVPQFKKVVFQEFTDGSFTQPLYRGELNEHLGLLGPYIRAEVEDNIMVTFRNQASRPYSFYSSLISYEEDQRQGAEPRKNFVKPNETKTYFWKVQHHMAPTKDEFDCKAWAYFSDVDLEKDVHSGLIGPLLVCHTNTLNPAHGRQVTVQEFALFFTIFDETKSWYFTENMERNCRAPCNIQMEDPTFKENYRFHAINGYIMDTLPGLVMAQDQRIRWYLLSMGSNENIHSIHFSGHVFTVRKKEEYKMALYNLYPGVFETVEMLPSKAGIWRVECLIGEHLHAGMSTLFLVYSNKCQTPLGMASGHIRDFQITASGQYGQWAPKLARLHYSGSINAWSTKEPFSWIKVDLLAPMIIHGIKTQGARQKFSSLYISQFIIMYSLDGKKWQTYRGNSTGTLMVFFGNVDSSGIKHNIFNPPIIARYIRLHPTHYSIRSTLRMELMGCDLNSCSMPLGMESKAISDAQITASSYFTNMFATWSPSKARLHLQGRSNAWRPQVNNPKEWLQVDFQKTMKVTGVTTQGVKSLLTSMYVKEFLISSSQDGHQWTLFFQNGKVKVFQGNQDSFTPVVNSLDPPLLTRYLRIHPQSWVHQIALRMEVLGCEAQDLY

Var97-R336I = tested on: T2, Var97-R336I
T2 sequence: T1 sequence with R336I

[2] = biological target: T3, Factor IXa (activated Coagulation Factor IX) (human, UniProt P00740 47-191; P00740 227-461, limits assumed); test: FXase kinetic assay: thrombin-activated FVIII fixed at 10 pM, FIXa varied 0-10 nM, FXa generation read with S-2765 (functional affinity)
T3 construct: also called FIXa
Description: The function of the Var97 variant in its physiologic enzyme complex was examined using FXase kinetic assays. These FXase kinetic assays were performed in 10 mM HEPES pH 7.4, 150 mM NaCl, 5 mM CaCl2, 0.01% Tween 20, 0.01% BSA and 10 μM PL (40:40:20, v/v/v PS:PC:PE). In these FXase kinetic assays, purified FVIIIa proteins were generated by incubation with 20 nM thrombin. The FVIII level was held fixed at 10 pM and reacted with varying concentrations of FIXa (0-10 nM), or the FIXa level was held fixed at (100 pM) and the level of thrombin activated FVIIIa was varied (0-10 nM). FX (150 nM) was added to either types of reactions, and after 1 min., the FXase reactions were stopped by addition to EDTA. The amount of FXa generated in these reactions were measured using the S-2765 chromogenic substrate. FXa generation was then extrapolated from a standard curve relating FXa level to rates of chromogenic substrate cleavage. The data was fit to a standard Michaelis-Menten equation to derive kinetic constants.

T3 sequence (P00740 47-191 limits assumed, form in doubt, chain 1 of 2): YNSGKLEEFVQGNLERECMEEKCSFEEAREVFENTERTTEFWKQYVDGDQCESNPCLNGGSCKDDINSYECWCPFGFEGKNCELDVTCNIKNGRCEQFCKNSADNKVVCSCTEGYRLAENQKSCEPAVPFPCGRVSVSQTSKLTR
T3 sequence (P00740 227-461 limits assumed, form in doubt, chain 2 of 2): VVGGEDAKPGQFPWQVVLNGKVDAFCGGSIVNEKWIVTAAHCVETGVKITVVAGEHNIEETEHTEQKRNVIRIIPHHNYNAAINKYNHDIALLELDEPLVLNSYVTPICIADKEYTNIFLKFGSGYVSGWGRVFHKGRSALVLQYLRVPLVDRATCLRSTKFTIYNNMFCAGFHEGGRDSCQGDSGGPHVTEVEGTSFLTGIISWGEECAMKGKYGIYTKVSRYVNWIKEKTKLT

Molecule: Factor IXa (activated Coagulation Factor IX)
proteolytic cleavage of FVIII by excess FIXa in a FXase reaction (SDS-PAGE, Coomassie Blue) [1]: the Var97 Factor VIII variant shows enhanced proteolytic cleavage by FIXa relative to one or both of BDD and D519VE665V variant FVIII
proteolytic cleavage in the FIXa digestion assay (SDS-PAGE) (Var97-R336I): proteolytic cleavage of Var97-R336I was markedly reduced as compared to Var97

fold binding affinity for FIXa over FVIII-BDD [2]: ≥ 4 fold
B1: Var97, a variant of D519VE665V-FVIII with the additional amino acid substitutions I371P, V374F, V559L, R562W and Q565E (other)
chain: T1 sequence
notes: Purified from HKB11 cells; also called Var97 variant; Var97 Factor VIII variant

From US20160031968A1 (Bayer, published 2016)
